Publication PMC4072508, “Genome-Wide Prediction and Validation of Peptides That Bind Human Prosurvival Bcl-2 Proteins” (PLoS Computational Biology, 2014)

T1: Bfl-1, Q16548
T1 chain: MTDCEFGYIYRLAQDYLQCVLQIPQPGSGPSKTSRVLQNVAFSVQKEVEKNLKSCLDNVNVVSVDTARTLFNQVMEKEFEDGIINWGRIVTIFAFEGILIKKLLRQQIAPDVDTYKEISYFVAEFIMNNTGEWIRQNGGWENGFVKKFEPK

T2: Mcl-1, Q07820
T2 chain: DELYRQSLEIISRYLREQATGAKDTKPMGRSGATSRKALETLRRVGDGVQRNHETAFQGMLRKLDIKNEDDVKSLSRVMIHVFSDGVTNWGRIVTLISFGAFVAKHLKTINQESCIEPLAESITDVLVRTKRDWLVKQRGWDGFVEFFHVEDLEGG


Biological target: T1, Bfl-1, Q16548
Experiment: peptide SPOT array, c-Myc-tagged receptor at 1 uM or 100 nM, anti-c-Myc-Cy3

| SPOT signal as a fraction of Bim BH3's signal on the same receptor and array | Binder |
| --- | --- |
| 0.04 | MQTLSELAKSFQDMADRCLLVLHLEV |
| 0.06 | EAVTDGLKRALRSFGNALGNCILDKD [RAD52] |
| 0.04 | PSECETLGSNDGHNADLLNENNILAK [ZFP90] |
| 0.45 | TAGLRPGARLDRVCGQTLPSLRPEAA [SIPA1] |
| 0.06 | KGTAVAICRRDGIFGDTEDVAGKAYT |
| 0.04 | AFGLGDLPNLDGLVGDQLGDTERKRR [ADAMTS14] |
| 0.31 | ADAIRPRCVELRHLLDDFINGNKKKW [MCF2L2] |
| 0.03 | HTALENCASLLCIRLDELQEALTSHC [MYO3A] |
| 0.04 | APEEDFFSIHIRIVGDWTEGLFNACG [CYBB] |
| 0.09 | KGTAVAICRRLGIFLDTEDVAGKAYT |
| 0.12 | WTLFVYTKGNFRMIGDDLVNSYHLLL [RBL1] |
| 0.51 | CGEWTRRSLHLRVLLRQLILPTDKGV [FAM149A] |
| 0.03 | ELDEDDLEAELDALGDELLADEDSSY [CHMP5] |
| 0.07 | VLAPVQLGKWDVLFCDEINLPDMDKY [DYNC1H1] |
| 0.04 | QEQEQHVPFDDHTYGDQLVSRFPQLN [NCAPH2] |
| 0.04 | LTETSLISGNDHRIGDITSCSVLWLN [FBXW5] |

| SPOT signal as a fraction of Bim BH3's signal on the same receptor and array | Binder |
| --- | --- |
| 0.13 | ACGDSVLARMDRELGDSLRRPQLRLW [SLC19A1] |
| 0.08 | GSPDSMFGISLAVLGDLNQDGFPDIA |
| 0.05 | DDMFEPHSWNLKELSDDCFQQWGVRP [PRCP] |
| 0.08 | TETKATFGVHLKIVLDWTERFRDLLL [NOX4] |
| 0.05 | IQENVDISTVYQIFADEVLGSGQFGI [PRKD3] |
| 0.06 | FSKREKLVEIDRNIGDERTMVFVETK [DDX4] |
| 0.06 | ELLYGIWSNCLGLILDSFHMFFDSTA [SLC30A7] |
| 0.04 | VLLTLLVAAVLRCQLQDVQEAGSCVQ [COL2A1] |
| 0.04 | APGEEDLCAADNVICDNVGKDWRRLA [FADD] |
| 0.03 | TSRINEVQVNLSLLGDDLLLPAQSTL [SPHKAP] |
| 0.29 | SDIRDDISEQVRHVGRTVRGHPRKKL [TMEM184C] |
| 0.07 | GSPDSMFGISLAVLLDLNQDGFPDIA |
| 0.03 | SEIMHSFAKCIEVMGDGCLNNEHFEE [IPO5] |
| 0.04 | MQTLSELAKSFQDMLDRCLLVLHLEV |
| 0.27 | VDSIRPKCQELRHLLDQFSAEIARRR [MCF2L] |
| 0.04 | MQTLSELAKSDQDMADRCLLVLHLEV |

What follows are binders tested against Bcl-xL, Q07817 in the same assay as above.
Sequence of Bcl-xL, Q07817 (Q07817 1-209): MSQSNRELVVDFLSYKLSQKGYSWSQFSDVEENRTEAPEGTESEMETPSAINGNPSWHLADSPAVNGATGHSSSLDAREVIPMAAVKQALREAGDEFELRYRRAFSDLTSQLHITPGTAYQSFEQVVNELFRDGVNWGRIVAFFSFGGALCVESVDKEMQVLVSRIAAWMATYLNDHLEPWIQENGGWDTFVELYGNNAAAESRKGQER

| SPOT signal as a fraction of Bim BH3's signal on the same receptor and array | Binder |
| --- | --- |
| 0.05 | MQTLSELAKSFQDMADRCLLVLHLEV |
| 0.15 | EAVTDGLKRALRSFGNALGNCILDKD [RAD52] |
| 0.11 | PSECETLGSNDGHNADLLNENNILAK [ZFP90] |
| 0.72 | TAGLRPGARLDRVCGQTLPSLRPEAA [SIPA1] |
| 0.08 | KGTAVAICRRDGIFGDTEDVAGKAYT |
| 0.05 | AFGLGDLPNLDGLVGDQLGDTERKRR [ADAMTS14] |
| 0.56 | ADAIRPRCVELRHLLDDFINGNKKKW [MCF2L2] |
| 0.05 | HTALENCASLLCIRLDELQEALTSHC [MYO3A] |
| 0.06 | APEEDFFSIHIRIVGDWTEGLFNACG [CYBB] |
| 0.16 | KGTAVAICRRLGIFLDTEDVAGKAYT |
| 0.13 | WTLFVYTKGNFRMIGDDLVNSYHLLL [RBL1] |
| 0.53 | CGEWTRRSLHLRVLLRQLILPTDKGV [FAM149A] |
| 0.06 | ELDEDDLEAELDALGDELLADEDSSY [CHMP5] |
| 0.07 | VLAPVQLGKWDVLFCDEINLPDMDKY [DYNC1H1] |
| 0.05 | QEQEQHVPFDDHTYGDQLVSRFPQLN [NCAPH2] |
| 0.06 | LTETSLISGNDHRIGDITSCSVLWLN [FBXW5] |

| SPOT signal as a fraction of Bim BH3's signal on the same receptor and array | Binder |
| --- | --- |
| 0.27 | ACGDSVLARMDRELGDSLRRPQLRLW [SLC19A1] |
| 0.07 | GSPDSMFGISLAVLGDLNQDGFPDIA |
| 0.06 | DDMFEPHSWNLKELSDDCFQQWGVRP [PRCP] |
| 0.07 | TETKATFGVHLKIVLDWTERFRDLLL [NOX4] |
| 0.08 | IQENVDISTVYQIFADEVLGSGQFGI [PRKD3] |
| 0.06 | FSKREKLVEIDRNIGDERTMVFVETK [DDX4] |
| 0.07 | ELLYGIWSNCLGLILDSFHMFFDSTA [SLC30A7] |
| 0.05 | VLLTLLVAAVLRCQLQDVQEAGSCVQ [COL2A1] |
| 0.06 | APGEEDLCAADNVICDNVGKDWRRLA [FADD] |
| 0.06 | TSRINEVQVNLSLLGDDLLLPAQSTL [SPHKAP] |
| 0.92 | SDIRDDISEQVRHVGRTVRGHPRKKL [TMEM184C] |
| 0.07 | GSPDSMFGISLAVLLDLNQDGFPDIA |
| 0.09 | SEIMHSFAKCIEVMGDGCLNNEHFEE [IPO5] |
| 0.05 | MQTLSELAKSFQDMLDRCLLVLHLEV |
| 0.6 | VDSIRPKCQELRHLLDQFSAEIARRR [MCF2L] |
| 0.05 | MQTLSELAKSDQDMADRCLLVLHLEV |

Biological target: T2, Mcl-1, Q07820
Experiment: as above

| SPOT signal as a fraction of Bim BH3's signal on the same receptor and array | Binder |
| --- | --- |
| 0.04 | MQTLSELAKSFQDMADRCLLVLHLEV |
| 0.1 | EAVTDGLKRALRSFGNALGNCILDKD [RAD52] |
| 0.04 | PSECETLGSNDGHNADLLNENNILAK [ZFP90] |
| 0.63 | TAGLRPGARLDRVCGQTLPSLRPEAA [SIPA1] |
| 0.08 | KGTAVAICRRDGIFGDTEDVAGKAYT |
| 0.04 | AFGLGDLPNLDGLVGDQLGDTERKRR [ADAMTS14] |
| 0.26 | ADAIRPRCVELRHLLDDFINGNKKKW [MCF2L2] |
| 0.03 | HTALENCASLLCIRLDELQEALTSHC [MYO3A] |
| 0.09 | APEEDFFSIHIRIVGDWTEGLFNACG [CYBB] |
| 0.16 | KGTAVAICRRLGIFLDTEDVAGKAYT |
| 0.15 | WTLFVYTKGNFRMIGDDLVNSYHLLL [RBL1] |
| 0.53 | CGEWTRRSLHLRVLLRQLILPTDKGV [FAM149A] |
| 0.03 | ELDEDDLEAELDALGDELLADEDSSY [CHMP5] |
| 0.05 | VLAPVQLGKWDVLFCDEINLPDMDKY [DYNC1H1] |
| 0.04 | QEQEQHVPFDDHTYGDQLVSRFPQLN [NCAPH2] |
| 0.03 | LTETSLISGNDHRIGDITSCSVLWLN [FBXW5] |

| SPOT signal as a fraction of Bim BH3's signal on the same receptor and array | Binder |
| --- | --- |
| 0.15 | ACGDSVLARMDRELGDSLRRPQLRLW [SLC19A1] |
| 0.04 | GSPDSMFGISLAVLGDLNQDGFPDIA |
| 0.04 | DDMFEPHSWNLKELSDDCFQQWGVRP [PRCP] |
| 0.08 | TETKATFGVHLKIVLDWTERFRDLLL [NOX4] |
| 0.04 | IQENVDISTVYQIFADEVLGSGQFGI [PRKD3] |
| 0.07 | FSKREKLVEIDRNIGDERTMVFVETK [DDX4] |
| 0.06 | ELLYGIWSNCLGLILDSFHMFFDSTA [SLC30A7] |
| 0.06 | VLLTLLVAAVLRCQLQDVQEAGSCVQ [COL2A1] |
| 0.03 | APGEEDLCAADNVICDNVGKDWRRLA [FADD] |
| 0.04 | TSRINEVQVNLSLLGDDLLLPAQSTL [SPHKAP] |
| 0.32 | SDIRDDISEQVRHVGRTVRGHPRKKL [TMEM184C] |
| 0.04 | GSPDSMFGISLAVLLDLNQDGFPDIA |
| 0.04 | SEIMHSFAKCIEVMGDGCLNNEHFEE [IPO5] |
| 0.04 | MQTLSELAKSFQDMLDRCLLVLHLEV |
| 0.25 | VDSIRPKCQELRHLLDQFSAEIARRR [MCF2L] |
| 0.04 | MQTLSELAKSDQDMADRCLLVLHLEV |
